Measured values reported in the nanobody polyreactivity screen of Harvey et al. (2022).

Assay: yeast display, Sf9 membrane polyspecificity reagent, FACS + sequencing; frameworks hold sequencing errors
Summary of the method: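 After 36–48 hours of galactose induction, yeast (Saccharomyces cerevisiae BJ5465) displaying a synthetic nanobody library were stained at 4 °C for 1 hour with 10% biotinylated, detergent-solubilized Sf9 membrane reagent. Streptavidin microbeads enriched the stained cells before FACS sorting into low and high (top ~1%) gates on anti-HA and streptavidin fluorescence. Each clone's polyreactivity label reflects its gate of origin.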

Row | Sequence | polyreactivity (PSR sort gate)
1 | QVQLVESGGGLVQAGGSLRLSSAASGSTFWFNAMGWYRQAPVKERELVAGISERGGRTYYADSVKGRFTISRDNAKNTVYLQMNRLKPEDPAVYYSNAGISPRRTTYYKYDYWGQGTQVNVSS | high polyreactivity
2 | QVQLVESGGGLVQAGGSLRLSSAASGSTIYYYAMGLYRQAPGKEREFVATITQSGGSTYYADSVKGRFTISRDNAKNTVYLQMNSLKPEDTAVYYCAADSWEVDEADIYNSWGQGSQVTVSS | low polyreactivity
3 | QVQLVESGGGLVQAGGSLRLSSAASRRIFSEYAMGWNRPEPGKERELVAAISKSGGRTYYADSVKGRFTISRDNAKNTVYFQMNSLKPEETAVDYCNARAVYPAGYAYDYWGQGTQVTVSS | high polyreactivity
4 | QVQLVESGGGLVQAGGSLRLSSAATGFTFDKYAMGWYRQAPGKERELVAASSGSGGTTYYADSVKGRFTISRDNAKNTVYLQMNSLKPEDTAVYYCATRLYSIYSYGYWGHGTQVTVSS | high polyreactivity
5 | QVQLVESGGGLVQAGGSLRLSSAATGGIFYSNAMGWYRQAPGKERELVAAITRSGTSTYYADSVKGRFTISRDNAKNTVYLQMNSLKPEDTAVYYCAADYRYRRSRGHVSKLYYWGQGTQGTVSS | low polyreactivity
6 | QVQLVESGGGLVQAGGSLRLSSAATGSTSFQNAMGWYRQAPGKEREFVAAISGSGDRTNYADSVKGRFTISRDNAKNTVYLQMNSLIPEDTAVYYCAAVRGYPPTNYYYWGQGTQVTVSS | high polyreactivity
7 | QVQLVESGGGLVQAGGSLRLSSADSGRIFRGYAMRLYRQAAGKVREFVAAISWGGGSKYYADSEKGRFTISRDNPKNTVYLQMNSLTPEDSAVYYCAAGSPYAYNYWGQGPQVTVSS | high polyreactivity
8 | QVQLVESGGGLVQAGGSLRLSSADSGSIFVYYAMGWYRQEPGKESELVATIRSSGARTYYADSVKGRFTISRDNAKNTVYLQINSLKPEDTAVYYCNARYVPYWAYGYGYWGQGTQVTVSS | high polyreactivity
9 | QVQLVESGGGLVQAGGSLRLSSAGSGSIFRVYALGWYRQAPGKERELVAVISIAGRTNYADSVKGRFTISRDNAKNTVYLQMNSLKPEDTAVYYCNAGGDGVATGYDYWGQGTQVTVSS | low polyreactivity
10 | QVQLVESGGGLVQAGGSLRLSSAGSGSTFIIYAMGWYRQAPGKERELVAAISWSGGSTYYADSVKGRFTISRDNAKNTVYLQMNSLKPEDTEVYYWAVVYRTRWSDYDYWGQGTQVTVSS | low polyreactivity
11 | QVQLVESGGGLVQAGGSLRLSSAHSGFIFAHNARGRYRQAPGKERELVAAITSSGGSTYYADSVKGRFRISRDNAKNTVYLQMNSVKPEDTAVYYCNDYTYARRGYDEWGQGTQVTVSS | high polyreactivity
12 | QVQLVESGGGLVQAGGSLRLSSAPSGNTFYWYVMGWYRHAPGKERELVARINSSGGTTNYADSVKGRFTISRDNAKNTVYFQMNSLKPEVTAVYYCAADDIYLYGGGTDYYFCGQGTQVTVSS | low polyreactivity
13 | QVQLVESGGGLVQAGGSLRLSSASSGSTFPGYTMRWYRPAPGKARELVAYITASDSSTYYADSEKGRFTISRDNAKNTVYLQINSLKPEDTAVYYSAKPPRHTWSFVDYRYEYWGQGTQGTVSS | low polyreactivity
14 | QVQLVESGGGLVQAGGSLRLSSPASGRTFGRYTMGWYRQAPGKESELVATISYNGGRTYYADSVKGRFTISRDNAKNTVYLQMNSRKPEDTAVNYCATRLPKSSLHDYWGQGTQVTVSS | high polyreactivity
15 | QVQLVESGGGLVQAGGSLRLSSPDSGLIFYLYAMGWYRQSHGKEREFVAAITSGGGSTYYADSVKGRFTISRDNAKNTVYLQINILIPEDTAVFYCAARLVLYITVVYEVDYWGQGTQVTVSS | low polyreactivity
16 | QVQLVESGGGLVQAGGSLRLSSSASGRISGRNAMGWYRQAPGKERELVAVITRGDTNYADSVKGRFTISRDNAKNTVYLQMNSLKPEDTAVYYCAKEPLASGWGYDYWGQGTQVTVSS | high polyreactivity
17 | QVQLVESGGGLVQAGGSLRLSWAASGFTFKYNAMGLYRQAHGKERELVAAISGSGGRTYYSDSVKGRFTISRDNAKNTVYLQMNSLKPEYTAVYYCAAVYLVTLGARYDYWGQGTQVTVSS | high polyreactivity
18 | QVQLVESGGGLVQAGGSLRLSWAASGFTFNRYAMGWYRQAPGKERELVAAISGSGASTYYADSVKGRFTISRDNAKNTVYLQMNSLKPEDTAVYYCATRYSRSYRSRDYYYWGQGTQVTVSS | high polyreactivity
19 | QVQLVESGGGLVQAGGSLRLSWAASGFTFSVYAMGWYRQAPGKERELVAAISSGGSTNYADSVKGRFTISRDNAKITVYFQMNSLKPEDTAVYYCADSITVGYSNYYYWGQGSQVTVSS | high polyreactivity
20 | QVQLVESGGGLVQAGGSLRLSWAASGGPFSSYDMGWYRQAPGTERELVADITNGGSTNFADSVKGRCTISRDNAKNTVYLQMNSLKPEDTAVYYCATDSYPGLNPDFDYWGHGTQVTVSS | low polyreactivity
21 | QVQLVESGGGLVQAGGSLRLSWAASGITFDDYAMGWYRPAPGKERELVAAITWSGDSTYYADSVKGRFTISRDNAKNTVYLQMNSLKPEDTAVYYCAAVSYYWGQGTQVTVSS | high polyreactivity
22 | QVQLVESGGGLVQAGGSLRLSWAASGITFRYYAMGWYRHAPGKERELVAAITSGGSTYYADSVKGRFTISRDNAKNTVYLQMNSLKPEDTAVYYCAAKYTLGVSRHPPVKKFYYWGQGTQVTVSS | high polyreactivity

Row | Sequence | polyreactivity (PSR sort gate)
23 | QVQLVESGGGLVQAGGSLRLSWAASGITFVRYAMGWYRQAPGKEREFVAAINSIVGRTYYADSVKGRFTISRDNAKNTVYLQMNSLKPEDTAVYYCDADSNVRYGMDYWGQGTQVTVSS | low polyreactivity
24 | QVQLVESGGGLVQAGGSLRLSWAASGNTFYGYAMGWYRQAPGKERELVAGIRWSGGSTSYADSVKGRFTISRDNAKNTVYLQMNSLKTEDTAVYYCAAGWYPWGYYSGYISYEYWGQGTQVTVSS | high polyreactivity
25 | QVQLVESGGGLVQAGGSLRLSWAASGRIFGRYTMGWYTQAPGKERELVAAISSAGSTNYADSVKGRFTISRDNAKNTVYLQMNSLKPEDTAVYYCNRAKYVRYSLHYLGYARDYWGQGTQVTVSS | high polyreactivity
26 | QVQLVESGGGLVQAGGSLRLSWAASGSIFNTYVMGWYRQAPGKEWELVAAITYSAGGDTYYADSVKGRFTISRDNAKNTVYLQMNSLKPEDTAVYYCAAEYTYLDAYGSYDYWGQGTQVTVSS | low polyreactivity
27 | QVQLVESGGGLVQAGGSLRLSWAASGSIFRYNAMGWYRQAPGKERELVAAISSGGGTTYYADSVKGRFTISRDNAKNSVYLQMNSLKPEVTAVYYCNARSYYQRTTYPFRVDYWGQGTQVTVSS | high polyreactivity
28 | QVQLVESGGGLVQAGGSLRLSWAASGSTFGFYAMGWYRQAPGKERELVASISSGGTTYHADSVKGRFTISRDNAKNTVYLQMNSLKPEDTAVYYSAAFYVATSKLGYWGQGSQVTVSS | low polyreactivity
29 | QVQLVESGGGLVQAGGSLRLSWAASGSTFNSYAMGCYRQAPWKERELVAAITWSGGSTFYADSVKGRVTISRDNAKNTVYLQMNSLKPEDTSVYYCNADGPYYPPYPSTYVDGDSWGQGTQVTVSS | low polyreactivity
30 | QVQLVESGGGLVQAGGSLRLSWAASGSTFVVYAMGWYRQAPGKERELVAAIDLSVGDTYYADSVKGRFTISRDNAKNTVFVQMNILKPEDTAVYYCAAEFYSYKYPDYDYWGQGTQVTVSS | low polyreactivity
31 | QVQLVESGGGLVQAGGSLRLSWAAYGNIFPHYAMGWYIQAPGKERELVAGITSSGGSTSYADSVKGRFTISRDNAKKTVYLQMNSLKPEDTAVYYCAAPRGQRVRDVYWGQGTQVTVSS | low polyreactivity
32 | QVQLVESGGGLVQAGGSLRLSYAASGFIFRYYAMGWYRQAPGKERELVAAIKASGGRTYYADSVKGRFTISRDNERNTVYLQINSLKPEDTAVYYCAASRSYQTFDYWGQGTQVTVSS | high polyreactivity
33 | QVQLVESGGGLVQAGGSLRLSYAASGFTFTGYALGWYRQAPGKARELVAAISQSGGSTYADSVKGRFTISRDNAKNTVYLQMNSLKPEDTAVYYCAAVWFLLTEYDYWGQGTQVTVSS | low polyreactivity
34 | QVQLVESGGGLVQAGGSLRLTCAASAFTFKLYVMGWYRHATGKERQFDAGITKRGGRTYYADSVKGRFTISRDNAKNTFYLQMNSLKPEDTAVYYCSAGTRIYNSCIRFDYWGQGTQVTVSS | high polyreactivity
35 | QVQLVESGGGLVQAGGSLRLTCAASGFIFHRYAMGWYRQAPGKERELVAAITLNGGSTYYADSVKGRFTISRDNAKNTVYLQLNSLKPEDTAVYYCNAGWPWYVGGYYYWGQGTQVTVSS | low polyreactivity
36 | QVQLVESGGGLVQAGGSLRLTCAASGFIFSKYAMGSYRQAPGKERELVAAISTSGASTYYADSVKGRFTISRDNAKNTVYLQMNSLKPEDTAVYYCNVPRYSPIRNYDYWGQGTQVTVSS | high polyreactivity
37 | QVQLVESGGGLVQAGGSLRLTCAASGFIFVTYAMGWYRQPPGKERELVAAITNSGGTTYYADSVKGRFTISRDNAKNTVYLQMNSLKPEDTAVYYCNIPYGAETAHREFDYWGQGTQVTVSS | low polyreactivity
38 | QVQLVESGGGLVQAGGSLRLTCAASGFTFPDKAMGWYRQAPGNERELVAALTTSGGRTYYADSVKGRFTISRDNAKNTVYLQMNRLKPEDTAVYYCARPSRQSHWYYYWGQGTQVTVSS | high polyreactivity
39 | QVQLVESGGGLVQAGGSLRLTCAASGIIFRLNAMGWYRQAPGKERELVAAIRRRGGSTYYADSVKGRFTISRDYAKNTVYLQMNSLKPADTAVYYCAKEPDGSDFGYWGQGTQVTESS | low polyreactivity
40 | QVQLVESGGGLVQAGGSLRLTCAASGNTFGNYAMGWYRQAPGKERELVASISWNVGSTYYADSVKGRFTISRDNAKNTVYLQMNSLKPEDTAVYYCARGYDRPRVATFHRFDYWGQGTQVTVSS | low polyreactivity
41 | QVQLVESGGGLVQAGGSLRLTCAASGRIFAPKAMGWYRQAPGKERELVAGISSGGSTNYADSVKGRFTISRDNAKNTVYLQMNSLTPEDSAVYYCATGSYSYHRGYVTYARYGYWGQGTLVTVSS | low polyreactivity
42 | QVQLVESGGGLVQAGGSLRLTCAASGRIFDTYAMVWYRQAPGKEMELVAAISRSGGRTYYADSVKGRFTISRDNANNTVYLQMNSLKPEDTAVYYCAARAYPYYWTGQKQSRFGYWGQGTQVTVSS | high polyreactivity
43 | QVQLVESGGGLVQAGGSLRLTCAASGRIFPYYAMGWYRQAPGKEREFVAAITSSGSRTYYADSVKGRFTISRDNAKNNVYLQMNSLKPEDTAVYYCAVAYRLLYYYWGQGTQVTVSS | high polyreactivity
